From the domain aggregation screens of Martell et al. (2025)

Experiment: soluble fraction after stress (log2 fold change); higher = more stays soluble; pooled small domains, quantitative proteomics
Details: stress: pH 4
In short: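 Aggregation propensity is estimated from the fold change in each domain's soluble amount after acid stress. Pooled small-domain libraries were stressed at pH 4, and higher log2 values mean more stayed soluble.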

Sequence	soluble fraction (log2)
HMTKKFQIQTLDKLNVRKVADWNASAVTTVKKGQILDVVAEVSPKNGSTKMYKLESGLYITASEKYVKKQG	≥ 0.43
HMSMVGSVNKQGRPFALLRVDNLLYQVKVGDYLGQNYGRITQIDETQIALREIVQDAAGEWIERPGVLQL	-0.256
HMHPEETVNLILDAAFRLFLEKGYEHTSIQDIIGQLGGLSKGAIYHHFNSKEDILIAVTDRMTA	-1.67
HMKVSDLIGMLGRVTGELAPTGIVLVGNKTWTAISEDASVIASGEQVQVRSVAGLILTVSHQVD	-0.954
HMEQLIIQEELSGKRLDQLVSLLFPSLTRAHAQKLIKEGAVLVNEKPRKPAYAVMTGELLTVELPEPE	-0.755
HMNMLGEQVRNIRKSRGFTLKALAEQTGLSIGYISQIERNLTDPSLSTLRKISAALDVPTYLFMG	0.0605
HMAHETIDVAALRVGMFVQLDLGWLSHPFPLSSFRISSEDQIATIRALGLKRVRWSSEQSDS	-2.26
HMNIDGLIGKKALVTADIDNVNSKGQIKINGLEWTARSVDDEPIPMGTEVEITAISGVKAIVRKG	0.309
HMNAAFMKAERLLAILNILLTGKRVSSTELAKKLEVSVRTVYRDVEALSEAGFPVYATMGRDGGFGLIEGF	-1.58
HMNVAVSEADAKAAALERVSGATEADIRMELELDDGYYVYEGDIIYQQKEYEFEIDAQTGKFLKWSEER	0.0965
HMSAPAKKPKIKVDLSKVHAGTIVRHKGYGLGQVKGIDGAIIVVTFDGVDKKFQFPGGFENGFLFLTED	-1.21
HMRKDRKVLMERGRHIFNDLLEKEGIVATNQLMTKLLASHHLRNRDELYLMLANDDISLSSKEIKDLS	0.22
HMKPLRPVHLEIQTHRLSPVGILRSSFRQAGKVMHSNHGRITGLNLEQLKLIQAAFAGEALPK	0.0473
HMAMDSGELEAIVDRLISEHPDDWAALTAGDDRERKKKSGFFVGEVMKATRGQADGRAVIELLASRSA	-0.605
HMWTPLVVAVLIGGTHRFGELRAAVGGITPKVLTETLRSMERDGLVVREQTPGVPPRVDYALTPLGA	-0.191
HMINEEELLKIENIKRKYPDSKAALMPVLYFFQEKYGFISDDSIKEISQLLNISEVDIKGVVSFYEMFHEK	-1.04
HMKTITVEDEQAGKRLDKALAELFPHYSRSALEKLIKEGQVLVNKSFVKSKYSLKLGDEISLQFEQL	0.0205
HMRDIGKNIRYYREKKGYSQEQLAQLLFVTRQTVSNYETSRSRPDVETLVKLAGLLDIDVTDLIYGPR	0.0792
HMKETIIPELLQNELDKNSELNDKFNTFSPYKQREFIEYIITAKQEKTQISRLQKVILMILEGRGLNN	-0.491

Sequence	soluble fraction (log2)
HMRGFGYVRRLPSKRYQASYAGPDLQRHVAPTTFTTKADAESWLGAERKVVESGSWRPPAVREAEARLS	0.412
HMSIEHVPGYTTLSKREQEIVHALLTRKTPEELADDLSISINTLNKHISHIYHKLGIRGRMQLFDYA	-0.0894
HMKSKYLIKIEGDFDEKDLYKYLINVSIVNHTKNNGFTEVEFYNDNYSLQQNFLKSMLNDGIIITEFKKVE	-0.558
HMDVQNLTKKNQEFINIVTHQLLQSGKSDEDIQTILAKTLPEIIEKQKQGIPARSFLGAPTAWAAQFI	-0.0313
HMDRKFFFNEQYEDYINSDLKVKFMNDSGSKKSFQGELTKVTPSDLFLESEKESVKVPFSSIIQANLI	-0.591
HMSSRSLSYSDFIERVDAGQVSKVVMDGERLVVVGQDGTSYVTIKPPGDQVTENLSRELISKGVEVEAEPQ	≥ 0.43
HMPTITIQRGIILSSTTKGFIDELSHSQIKNAIVERLGEHHVMIHESQLDAVIKYAQKKEAVINIYL	-0.0875
HMLSTRERMSSLMAQLQVQQFMPFHRLFTISEGRMGVIVTFLAMMELVKENLIKLIQAQEYGPIHVSLG	0.22
HMYIKYETVLQNITERIAALRKNGTLVLDGERTLAAEFDASRGTIRKAMRQLEENGTILREGYVTRILPE	-0.299
HMTTVRLNATVPPELALQRLDRVARELFPEYSRNRLQQWIRSGELLVNGSPSGVRDKVPLGAELAVAANLE	-0.343
HMYRIGELAKLADVTPDTIRYYEKQQMMDHDVRTEGGFRLYSDNDLQRLKFIRYARQLGFTLEAIRELLSI	-0.51
HMPYSKIALQISHLLKSHGVPLSNKQIYEKLINDFQLSINYSNLTNNILPRMNSDSSINVEKVTRGYWQY	0.22
HMSHKYKLTVPETGEGTRVDKFLSSALTELSRTRLKSLIEEGQVTLGGVKLTNPSHRVKSGDELNIEIPVP	0.0568
HMNEFNEVVPDSLEGERLDRLLAFIGNISRSEASNIIKGGEVLINGKVVTRPSFKVTLGNRVEFSIRD	-0.19
HMETAVMPDVMKLDSTTAIQALKDKGFATIETYEVKSDRPAGVVVRQSETADSVVALSKEILLGVSNGADY	-0.00473
HMNPIDAHVGARVRLRRMLIGMSQEKLGELLGVTFQQIQKYEKGANRIGASRLYEVSRVLDVPVQYFFDDM	-0.436
HMKSQSIFNVKKGDTLSHIAVHVLKKNKQKVTPEAINKMVSNIAFRNKIKNPDLIFPGQKLVLEY	-0.0458
HMYSYSGSVINTYKVPVSVVLKDANGSAIASWDLPVDQSLGISAKDIATSSGTIEITGDGVNETKTVTFTK	-0.159
